The source of these data is paper PMC8865267 (mAbs, 2022).

Where a chain is given by its changes, count along the chain named. Like-named read-outs stand apart in the source and are kept apart here.

For test [1], the target named is human CTLA-4 with C-terminal Myc, poly-histidine and BirA biotinylation tag (Homo sapiens (Human).) (UniProt P16410). The test is described as follows: SPR. (In general: SPR reads the build-up and loss of mass on a sensor chip optically.)
Test [2] concerns the target CTLA-4 of activated primary human CD4+CD25+ T cells (human (endogenous in primary CD4+CD25+ …, UniProt P16410)). The test is described as follows: flow cytometry on cells.
For test [3], the target named is CTLA-4 on BW cells expressing ~2,000 CTLA-4 receptor copies (Homo sapiens (Human)., UniProt P16410). As to the kind of experiment: flow cytometry on cells. (In general: Flow cytometry measures light scatter and fluorescence of single cells or particles in a stream.)
In test [4] the target is T1, human CTLA-4 with C-terminal poly-histidine tag (crystallography construct) (human, UniProt P16410, glycans trimmed with EndoH). The test is described as follows: crystal structure.
In test [5] the target is T1, human CTLA-4 with C-terminal …. The test is described as follows: crystal structure. The source holds these as a separate data set.

T1 sequence (P16410 36-161): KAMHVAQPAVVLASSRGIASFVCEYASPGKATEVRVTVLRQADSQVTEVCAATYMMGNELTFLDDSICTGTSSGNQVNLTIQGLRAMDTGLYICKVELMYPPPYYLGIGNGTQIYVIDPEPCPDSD
Chain of CTLA-4 of activated primary human CD4+CD25+ T cells (human (P16410 36-223): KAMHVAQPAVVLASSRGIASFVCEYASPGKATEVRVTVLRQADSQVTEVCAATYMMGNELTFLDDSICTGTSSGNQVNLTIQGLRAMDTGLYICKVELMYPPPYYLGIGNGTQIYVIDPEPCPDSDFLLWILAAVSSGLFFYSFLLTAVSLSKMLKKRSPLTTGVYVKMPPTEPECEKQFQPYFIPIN
Chain of CTLA-4 on BW cells expressing ~2,000 CTLA-4 receptor copies (P16410 36-223): as above

The Kd is the constant that tells how readily two partners part at equilibrium. A higher Kd goes with lower affinity. In test [1], ipilimumab Fab came in with a dissociation constant Kd of 40 nM.

B1: Ipi.105 IgG1, non-fucosylated (antibody, V domains shown)
VH: QVQLVESGGGVVQPGRSLRLSCAASGFTFSHYTMHWVRQAPGKGLEWVTFISYDGHNKYYADSVKGRFTISRDNSKNTLYLQMNSLRAEDTAIYYCARTGWLGPFDYWGQGTLVTVSS
VL: EIVLTQSPGTLSLSPGERATLSCRASQEVGESELAWYQQKPGQAPRLLIYGAFSRATGIPDRFSGSGSGTDFTLTISRLEPEDFAVYYCQQYGSSPWTFGQGTKVEIK
For B1, the binding result in test [2] and in test [3] was “binds” each time.

B2: Ipi.106 IgG1, non-fucosylated (antibody, V domains shown)
VH: B1 VH with T99H
VL: B1 VL
Take B2: the binding result in test [2] and in test [3] was “binds” in each case.

B3: Ipi.105 Fab (Fab, V domains shown)
VH: B1 VH
VL: B1 VL
B3: the binding result in test [4] is reported as “binds”.

B4: Ipi.106 Fab (Fab, V domains shown)
VH: B1 VH with T99H
VL: B1 VL
Turning to B4, in test [5], the binding result was “binds”.
